Molecular target: pro-uPA (pro-urokinase-type plasminogen activator, single-chain zymogen form of uPA), P00749

Protein | k (first-order rate constant of pro-uPA activation) | kcat/Km of pro-uPA activation | cleavage of pro-uPA (SDS-PAGE, 1.5 uM pro-uPA, 15 nM plasmin)
matriptase protease domain (protein) VVGGTDADEGEWPWQVSLHALGQGHICGASLISPNWLVSAAHCYIDDRGFRYSDPTQWTAFLGLHDQSQRSAPGVQERRLKRIISHPFFNDFTFDYDIALLELEKPAEYSSMVRPICLPDASHVFPAGKAIWVTGWGHTQYGGTGALILQKGEIRVINQTTCENLLPQQITPRMMCVGFLSGGVDSCQGDSGGPLSSVEADGRIFQAGVVSWGDGCAQRNKPGVYTRLPLFRDWIKENTGV | 0.0142 min⁻¹ | 79000 M⁻¹ s⁻¹ | 
Lys-plasmin (protein) KVYLSECKTGNGKNYRGTMSKTKNGITCQKWSSTSPHRPRFSPATHPSEGLEENYCRNPDNDPQGPWCYTTDPEKRYDYCDILECEEECMHCSGENYDGKISKTMSGLECQAWDSQSPHAHGYIPSKFPNKNLKKNYCRNPDRELRPWCFTTDPNKRWELCDIPRCTTPPPSSGPTYQCLKGTGENYRGNVAVTVSGHTCQHWSAQTPHTHNRTPENFPCKNLDENYCRNPDGKRAPWCHTTNSQVRWEYCKIPSCDSSPVSTEQLAPTAPPELTPVVQDCYHGDGQSYRGTSSTTTTGKKCQSWSSMTPHRHQKTPENYPNAGLTMNYCRNPDADKGPWCFTTDPSVRWEYCNLKKCSGTEASVVAPPPVVLLPDVETPSEEDCMFGNGKGYRGKRATTVTGTPCQDWAAQEPHRHSIFTPETNPRAGLEKNYCRNPDGDVGGPWCYTTNPRKLYDYCDVPQCAAPSFDCGKPQVEPKKCPGRVVGGCVAHPHSWPWQVSLRTRFGMHFCGGTLISPEWVLTAAHCLEKSPRPSSYKVILGAHQEVNLEPHVQEIEVSRLFLEPTRKDIALLKLSSPAVITDKVIPACLPSPNYVVADRTECFITGWGETQGTFGAGLLKEAQLPVIENKVCNRYEFLNGRVQSTELCAGHLAGGTDSCQGDSGGPLVCFEKDKYILQGVTSWGLGCARPNKPGVYVRVSRFVTWIEGVMRNN | 0.0815 min⁻¹ | 453000 M⁻¹ s⁻¹ | cleavage of pro-uPA by plasmin generated identical fragments and with a time-course similar to hepsin

Reference: patent US20100061996
